Assays:
[1] = molecular target: T1, circulating APOL1 in normal human serum (human, UniProt O14791 28-398); test: summary of the Examples: trypanolysis blocking as proxy for serum APOL1
T1 construct: mature; Serum of healthy volunteers; lipoprotein-associated; also called serum APOL1; HDL APOL1
T1 sequence (looked up): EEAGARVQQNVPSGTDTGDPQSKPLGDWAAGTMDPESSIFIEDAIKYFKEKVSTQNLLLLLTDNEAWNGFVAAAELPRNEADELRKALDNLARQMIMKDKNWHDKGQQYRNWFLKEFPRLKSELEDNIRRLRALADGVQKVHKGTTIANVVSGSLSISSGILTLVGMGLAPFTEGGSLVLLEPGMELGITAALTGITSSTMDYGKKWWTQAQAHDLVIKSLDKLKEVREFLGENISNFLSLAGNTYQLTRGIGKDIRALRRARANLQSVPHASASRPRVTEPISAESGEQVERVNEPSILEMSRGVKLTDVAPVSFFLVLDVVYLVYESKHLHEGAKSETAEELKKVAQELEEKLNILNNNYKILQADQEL
Experimental: The trypanolysis assay used herein to text specificity of antibodies for serum APOL1 is as follows. Trypanosoma brucei brucei were obtained from ATCC and cultured in HMI-9 media containing IMDM (Genentech), heat-inactivated (56° C. for 30 min) FBS (Seradigm IXL9/06807/GEN), 1% serum plus (Sigma 14008C), HMI-9 (Genentech) and 1% hypoxanthine (Genentech). Trypanosome lysis was performed by treating 1×10⁵ Trypanosomes with serial dilutions of NHS or recombinant APOL1 for 16 h in a total of 100 μl. Live cell read out was done by the Alamar Blue assay as per the manufacturer's protocol, (Thermo Fisher, DAL1100). Briefly 10 μl of Alamar Blue was added to each well, incubated at 37° C. for 4 h. Red fluorescence, indicating live trypanosomes, was measured on a SpectraMax® fluorimeter powered by SoftMAX® PRO with excitation at 530 nm and emission 590 nm. For the antibody blocking assay, 1% normal human serum was preincubated with 1-10 μg/ml of anti-APOL1 antibody or media at room temperature for 20 minutes followed by addition of trypanosomes. After 16 h, the Alamar Blue assay was performed as above and background values for media only were subtracted and % blocking calculated by normalizing to no antibody control.
Trypanosoma brucei brucei were obtained under MTA from ATCC and cultured in HMI-9 media containing IMDM (Genentech), heat-inactivated (56° C. for 30 min) FBS (Seradigm IXL9/06807/GEN), 1% serum plus (Sigma 14008C), HMI-9 (Genentech) and 1% hypoxanthine (Genentech). Trypanosome lysis was performed by treating 1×10⁵ Trypanosomes with serial dilutions of NHS or recombinant APOL1 for 16 h in a total of 100 μl. Live cell read out was done by the Alamar Blue assay as per the manufacturer's protocol (30) (Thermo Fisher, DAL1100). Briefly 10 μl of Alamar Blue was added to each well, incubated at 37° C. for 4 h. Red fluorescence, indicating live trypanosomes, was measured on a SpectraMax fluorimeter powered by SoftMAX PRO with excitation at 530 nm and emission 590 nm. For the antibody blocking assay, 1% normal human serum was preincubated with 1-10 μg/ml of anti-APOL1 antibody or media at room temperature for 20 mins followed by addition of trypanosomes.

APOL6-myc-FLAG = molecular target: T2, APOL6-myc-FLAG (human, UniProt Q9BWW8 1-343); test: immunofluorescence on transfected COS cells; grade
T2 construct: whole, on cells; In fixed, permeabilized transfected COS cells; untagged APOL6 in the western blots; not shown: C-terminal myc-FLAG tag
T2 sequence (looked up): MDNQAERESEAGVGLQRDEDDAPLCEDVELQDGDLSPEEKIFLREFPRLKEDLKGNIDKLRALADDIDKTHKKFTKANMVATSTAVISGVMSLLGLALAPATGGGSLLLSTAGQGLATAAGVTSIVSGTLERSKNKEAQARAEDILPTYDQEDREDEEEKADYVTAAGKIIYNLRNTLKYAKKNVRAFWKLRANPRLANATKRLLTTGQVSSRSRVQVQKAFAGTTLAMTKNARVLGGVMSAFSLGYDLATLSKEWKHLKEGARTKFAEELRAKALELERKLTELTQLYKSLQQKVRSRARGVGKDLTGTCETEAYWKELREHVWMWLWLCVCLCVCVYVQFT
Text: COS cells were transfected as in FIG. 31A except APOL1 and APOL2 were also C-terminally myc-FLAG tagged. Overlays of APOL with epitope tags: either mouse anti-FLAG-M2 or mouse anti-myc 9E10 for anti-APOL1 rabmabs; or rabbit anti-Myc 71D10 in conjunction with mouse anti-APOL1. Signals indicate the two antibodies overlap (i.e. anti-APOL1 cross-reacts with that APOL); signals (epitope tag only) indicate no cross-reactivity. Alexa647 anti-rabbit or mouse were used for the tags to rule out the possibility that any colocalization was a bleed-through artifact. Sparsely transfected areas were imaged to permit evaluation of background staining in adjacent untransfected cells—DAPI nuclear staining identifies both untransfected and transfected cell nuclei. […] Note that none of the antibodies cross-reacted with the more distantly related APOL6. *, APOL2-myc-FLAG is presumably misfolded, since it is not as cross-reactive as untagged APOL2 (compare FIG. 31A) with several antibodies. Commercial antibodies are Sigma HPA018885, Epitomics EPR2907 (2) (Epito) and Proteintech 11486-2-AP (Ptech).
Cells were plated on LabTekII (Nalge Nunc 154534) slides and fixed at 70-100% confluency. For mAb screening, cells were fixed/permeabilized for 5 min in −20° C. methanol (EMD MX0485-6). For all other experiments, cells were fixed in 3% paraformaldehyde in PBS (EMS 15710) for 20 mins at room temperature, quenched with 50 mM NH₄Cl in PBS for 10 mins, then permeabilized with 0.1% TX-100 in PBS for 4 mins or for 1h in saponin buffer [0.4% saponin (Sigma S7900), 1% bovine serum albumin (BSA; Sigma A2153), 2% fetal bovine serum (Seradigm) in PBS]. First antibodies (stored sterile at 4° C.) were applied for 1 h at room temperature, at 1 μg/ml for screening on transfected cells or at subsequently optimized concentrations for detecting endogenous APOL1. After 3×10 min washes in PBS (for Methanol or TX-100 protocols) or saponin buffer (saponin protocol), secondary antibodies were applied at 1.88 μg/ml for 1 h at room temperature, washed 3× and mounted under No. 1.5 coverslips in ProLong Gold with DAPI (4′,6-diamidino-2-phenylindole; Life Technologies P36931).

[2] = molecular target: T3, untagged APOL1-G0, KIK variant, transiently expressed (COS cells) (human, UniProt O14791 29-398); test: immunofluorescence on transfected COS cells, 1 µg/ml; grade
T3 construct: Origene SC109941 clone with E150K, M228I, R255K
T3 chain: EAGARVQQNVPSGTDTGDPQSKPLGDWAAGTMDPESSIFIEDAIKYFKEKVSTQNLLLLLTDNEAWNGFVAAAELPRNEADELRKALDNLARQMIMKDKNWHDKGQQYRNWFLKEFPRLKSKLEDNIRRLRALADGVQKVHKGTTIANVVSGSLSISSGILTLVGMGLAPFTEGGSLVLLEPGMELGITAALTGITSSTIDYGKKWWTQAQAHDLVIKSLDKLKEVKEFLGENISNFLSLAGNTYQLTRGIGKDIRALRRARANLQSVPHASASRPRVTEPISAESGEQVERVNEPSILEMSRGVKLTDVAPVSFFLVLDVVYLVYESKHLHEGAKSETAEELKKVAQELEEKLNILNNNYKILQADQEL

[3] = molecular target: T1, circulating APOL1 in normal human serum; test: cell-based or functional assay
[4] = molecular target: T4, endogenous human APOL1 (wild-type immortalized podocytes; also JHH-1 cells, kidney and liver tissue) (human, UniProt O14791 28-398); test: summary of the Examples: podocyte flow cytometry
T4 construct: whole, on cells; Cell or tissue and permeabilization are told under assay; also called podocyte APOL1; endogenous APOL1
T4 sequence (looked up): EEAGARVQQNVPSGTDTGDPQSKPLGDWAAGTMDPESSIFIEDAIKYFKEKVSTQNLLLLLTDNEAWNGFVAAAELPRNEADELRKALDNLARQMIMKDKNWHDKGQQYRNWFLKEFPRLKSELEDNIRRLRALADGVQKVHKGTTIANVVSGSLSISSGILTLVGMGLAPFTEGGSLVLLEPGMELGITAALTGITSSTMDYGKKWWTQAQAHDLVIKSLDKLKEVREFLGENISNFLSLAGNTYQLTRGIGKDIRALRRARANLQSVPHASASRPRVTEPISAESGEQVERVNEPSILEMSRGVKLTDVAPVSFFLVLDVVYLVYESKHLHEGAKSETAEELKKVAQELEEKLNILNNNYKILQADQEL
Experimental: Cells were harvested with 5 mM EDTA in PBS, washed once with growth media and twice with PBS. Approximately 0.5×10⁶/m1 of cells resuspended in PBS were incubated with anti-APOL1 antibodies for 1 h on ice. Following two PBS washes, 2 μg/ml of Alexa488 anti-mouse or anti-rabbit (Invitrogen A11029 and A21206, respectively) was used for 1 h on ice for detection. Cells were washed twice in PBS and resuspended in PBS with 1 μg/ml propidium iodide. Signals were read in a FACSCalibur3 (Becton Dickinson), with the exception of FIG. 8A and FIG. 14, which used a FACSCelesta, and data was analyzed using FlowJo v8.4.5. Mean fluorescence intensities were plotted in PRISM v7 after subtraction of secondary antibody alone background. For low pH experiments, cells were incubated with the antibodies in the presence of PBS pH 7.0 or PBS pH 5.5 for an hour on ice and detected with secondary antibodies at neutral pH.

B1: antibody 3.2C11 (antibody, V domains shown)
VH: QVQLQQSGAELVRPGASVKLSCKALGYTFTDYEIHWVKQTPVHGLEWIGGIHPGNGGTAYNPKFKGKATLTADTSSSTASMELSSLTSEDSAVYYCTDWVDYWGQGTTLTVSS
VL: DVVVTQTPLSLPVNFGDQVSISCRSSQSLVNRHGITYLSWYLHKPGQSPQLLIYEISNRFSGVPDRFSGSGSGTDFTLKISTIKPEDLGMYYCFQGTHQPFTFGGGTKLEIKR
notes: Mouse mAb, cloned as murine IgG2a LALAPG
B1: binds [1].

B2: rabbit monoclonal antibody 5.17H8 (antibody, V domains shown)
VH: QSLEESGGRLVTPGTPLTLTCTVSGIDLSSYAMGWVRQAPGKGLEWIGIISSSGSTHYASWAKGRFTISKTSTTVDLKITSPTTEDTATYFCARARAGSTYYTGYYFNLWGQGTLVTVSS
VL: AIEMTQTASPVSAAVGGTVTINCQASESIYSNLAWYQQKPGQRPKLLIYGASTLESGVPSRFKGSGSGTEYTLTISDLECDDAATYYCQSGYYGISAINNAFGGGTEVVVKG
notes: Rabbit mAb (Method #5), recombinant; also called rabmab 5.17H8
B2: no binding (tested: 1 µg/ml) (APOL6-myc-FLAG).

B3: antibody 3.1C7 (antibody)
heavy: EVQLQQSGTVLSRPGASVKMSCKASGYTMTSYWMHWIKQRPGQGLEWIGAIYPGKSDIKYNQKFKDKAKLTAVTATSTAYMEINSLTNEDSAVYYCTNSIPFVYWGQGTLITVSAASTKGPSVYPLAPVCGDTTGSSVTLGCLVKGYFPEPVTLTWNSGSLSSGVHTFPAVLQSDLYTLSSSVTVTSSTWPSQSITCNVAHPASSTKVDKKIEPRGPTIKPCPPCKCPAPNAAGGPSVFIFPPKIKDVLMISLSPIVTCVVVDVSEDDPDVQISWFVNNVEVHTAQTQTHREDYNSTLRVVSALPIQHQDWMSGKEFKCKVNNKDLGAPIERTISKPKGSVRAPQVYVLPPPEEEMTKKQVTLTCMVTDFMPEDIYVEWTNNGKTELNYKNTEPVLDSDGSYFMYSKLRVEKKNWVERNSYSCSVVHEGLHNHHTTKSFSRTPGK
light: DIVMTQSPSSLTVTAGEKVTMSCKSSQSLLNSENQKKYLTWFQQKPGQPPKLLIYWTSTRYSGIPDRFTGSGSGTVFTLTISSVQADDLAVYYCQNDYSYPLTFGGGTKLEIKRADAAPTVSIFPPSSEQLTSGGASVVCFLNNFYPKDINVKWKIDGSERQNGVLNSWTDQDSKDSTYSMSSTLTLTKDEYERHNSYTCEATHKTSTSPIVKSFNRNEC
notes: Mouse mAb, cloned as murine IgG2a LALAPG; also called SRA-ID antibody 3.1C7
B3 was tested, and the binding result [2] was “binds”, the binding result (APOL6-myc-FLAG) was “no binding (tested: 1 µg/ml)” and the “IC50 of blocking of serum APOL1-mediated trypanolysis (Alamar Blue)” value [3] was 1 nM.

B4: antibody 4.2C4 (antibody, V domains shown)
VH: QVQLQQSGPELVKPGASVKMSCKASGYTFTDYVISWVKQRTGQGLEWIGEMFPGSGTTYYTEKFRGKATLTADKSSNTAYMQLSSLTSEDSAVYFCARGTTADYWGQGTTLTVSS
VL: ENVLTQSPAIMSASLGEKVTMSCRASSSVNYMYWYQQKSDASPKLWIYYTSNLAPGVPARFSGSGSGNSYSLTISSMEGEDAATYYCQQFTSSPYTFGGGTKLEIKR
notes: as for B1
B4: binds [2]; no binding (tested: 1 µg/ml) (APOL6-myc-FLAG).

B5: antibody 3.4G10 (antibody, V domains shown)
VH: DVQLQESGPDLVKPSQSLSLTCTVTGYSITSGESWHWIRHFPGNELEWMGFIHYSGSANYNPSLKSRISITRDTSKNQFFLQLLSVTTDDTATYYCARSVYNYDGAWFPYWGQGTLVTVSA
VL: QIVLTQSPVIMSASPGERVTLTCSASSSVSSSYLNWYQLKPGSSPKVWIYRTSNLASGVPARFSGSGSGTSYSLTISSMEAEDAASYFCHQWSAYPPTFGGGTKLEIKR
notes: as for B1
B5: binds [4]; binds [1].

— US20230071609A1 (Genentech, published 2023)
